Reference: doi:10.1101/2021.07.22.453419 (2021)

Target: T1, Papain (E.C.3.4.22.2, from papaya latex) (papaya, UniProt P00784 134-345)
T1 chain: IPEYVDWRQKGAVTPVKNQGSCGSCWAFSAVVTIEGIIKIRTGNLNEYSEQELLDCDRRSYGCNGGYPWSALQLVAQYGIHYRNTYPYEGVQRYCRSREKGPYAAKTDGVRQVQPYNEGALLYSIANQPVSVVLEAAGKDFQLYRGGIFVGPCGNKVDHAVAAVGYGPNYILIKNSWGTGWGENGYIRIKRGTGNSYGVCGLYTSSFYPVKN

- Ki: 14.7 nM
B1: tomato cystatin SlCYS8 (natural protein)
chain: NPGGITNVPFPNLPQFKDLARFAVQDYNKKENAHLEFVENLNVKEQVVAGIIYYITLVATDAGKKKIYETKILVKGWENFKEVQEFKLVGDATK
